# In patent US20080058636A1, “METHODS OF MYOCARDIAL IMAGING” (Epix Pharmaceuticals, Inc., priority 2005, published 2008):
# Bridge positions count the residues as written; N and C are the ends. Square brackets hold non-standard residues; d marks the D form. Ends that are not written are not given here.
# B1: SEQ ID NO: 171 (peptide)
# chain: GQWTCSGDE[dY]TWHCNYE
# modifications: disulfide 5-14 (inferred); not fully specified (C-terminus); printed as Q W T C S G D E y T W H C N Y E
# B2: SEQ ID NO: 172 (peptide)
# chain: GQWTCSGDEY[dT]WHCNYE
# modifications: disulfide 5-14 (inferred); not fully specified (C-terminus); printed as Q W T C S G D E Y t W H C N Y E
# B3: SEQ ID NO: 173 (peptide)
# chain: GQWTCSGDEYT[dW]HCNYE
# modifications: disulfide 5-14 (inferred); not fully specified (C-terminus); printed as Q W T C S G D E Y T w H C N Y E
# B4: SEQ ID NO: 174 (peptide)
# chain: GQWTCSGDEYTW[dH]CNYE
# modifications: disulfide 5-14 (inferred); not fully specified (C-terminus); printed as Q W T C S G D E Y T W h C N Y E
# B5: SEQ ID NO: 175 (peptide)
# chain: GQWTCSGDEYTWH[dC]NYE
# modifications: disulfide 5-14 (inferred); not fully specified (C-terminus); printed as Q W T C S G D E Y T W H c N Y E
# B6: SEQ ID NO: 176 (peptide)
# chain: GQWTCSGDEYTWHC[dN]YE
# modifications: disulfide 5-14 (inferred); not fully specified (C-terminus); printed as Q W T C S G D E Y T W H C n Y E
# B7: SEQ ID NO: 177 (peptide)
# chain: GQWTCSGDEYTWHCN[dY]E
# modifications: disulfide 5-14 (inferred); not fully specified (C-terminus); printed as Q W T C S G D E Y T W H C N y E
# B8: SEQ ID NO: 178 (peptide)
# chain: GQWTCSGDEYTWHCNY[dE]
# modifications: disulfide 5-14 (inferred); not fully specified (C-terminus); printed as Q W T C S G D E Y T W H C N Y e
# Target: rat collagen (acid soluble, type I, rat tail, Upstate 08-115) (rat) (UniProt P02454)
# Sequence (P02454 152-1207, chain 1 of 2): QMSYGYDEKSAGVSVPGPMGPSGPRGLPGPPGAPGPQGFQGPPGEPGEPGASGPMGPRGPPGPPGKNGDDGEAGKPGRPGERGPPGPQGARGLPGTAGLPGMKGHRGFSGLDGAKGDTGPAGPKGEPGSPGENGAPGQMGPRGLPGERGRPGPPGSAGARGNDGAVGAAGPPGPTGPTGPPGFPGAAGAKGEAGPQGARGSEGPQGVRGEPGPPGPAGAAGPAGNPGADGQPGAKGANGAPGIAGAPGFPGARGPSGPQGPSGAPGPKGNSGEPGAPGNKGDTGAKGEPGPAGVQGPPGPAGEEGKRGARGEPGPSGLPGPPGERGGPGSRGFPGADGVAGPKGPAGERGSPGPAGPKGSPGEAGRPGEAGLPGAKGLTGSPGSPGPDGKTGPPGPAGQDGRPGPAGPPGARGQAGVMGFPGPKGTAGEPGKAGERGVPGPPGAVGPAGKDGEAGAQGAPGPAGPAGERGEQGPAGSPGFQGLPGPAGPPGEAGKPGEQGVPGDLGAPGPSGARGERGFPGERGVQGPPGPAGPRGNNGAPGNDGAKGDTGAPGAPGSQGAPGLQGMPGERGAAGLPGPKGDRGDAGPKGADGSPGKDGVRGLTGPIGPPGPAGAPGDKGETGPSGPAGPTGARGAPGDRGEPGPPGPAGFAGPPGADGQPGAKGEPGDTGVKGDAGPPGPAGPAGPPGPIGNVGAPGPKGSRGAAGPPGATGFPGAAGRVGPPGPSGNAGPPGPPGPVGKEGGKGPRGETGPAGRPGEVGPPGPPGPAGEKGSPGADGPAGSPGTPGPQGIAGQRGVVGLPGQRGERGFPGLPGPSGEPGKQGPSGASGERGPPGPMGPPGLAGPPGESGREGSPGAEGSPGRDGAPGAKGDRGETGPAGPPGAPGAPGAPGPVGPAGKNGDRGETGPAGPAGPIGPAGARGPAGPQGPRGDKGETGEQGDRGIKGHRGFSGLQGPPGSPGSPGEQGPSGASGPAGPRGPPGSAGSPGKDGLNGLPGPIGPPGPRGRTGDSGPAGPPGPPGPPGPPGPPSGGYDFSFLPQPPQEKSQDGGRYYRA
# Sequence (P02466 86-1125, chain 2 of 2, further chain): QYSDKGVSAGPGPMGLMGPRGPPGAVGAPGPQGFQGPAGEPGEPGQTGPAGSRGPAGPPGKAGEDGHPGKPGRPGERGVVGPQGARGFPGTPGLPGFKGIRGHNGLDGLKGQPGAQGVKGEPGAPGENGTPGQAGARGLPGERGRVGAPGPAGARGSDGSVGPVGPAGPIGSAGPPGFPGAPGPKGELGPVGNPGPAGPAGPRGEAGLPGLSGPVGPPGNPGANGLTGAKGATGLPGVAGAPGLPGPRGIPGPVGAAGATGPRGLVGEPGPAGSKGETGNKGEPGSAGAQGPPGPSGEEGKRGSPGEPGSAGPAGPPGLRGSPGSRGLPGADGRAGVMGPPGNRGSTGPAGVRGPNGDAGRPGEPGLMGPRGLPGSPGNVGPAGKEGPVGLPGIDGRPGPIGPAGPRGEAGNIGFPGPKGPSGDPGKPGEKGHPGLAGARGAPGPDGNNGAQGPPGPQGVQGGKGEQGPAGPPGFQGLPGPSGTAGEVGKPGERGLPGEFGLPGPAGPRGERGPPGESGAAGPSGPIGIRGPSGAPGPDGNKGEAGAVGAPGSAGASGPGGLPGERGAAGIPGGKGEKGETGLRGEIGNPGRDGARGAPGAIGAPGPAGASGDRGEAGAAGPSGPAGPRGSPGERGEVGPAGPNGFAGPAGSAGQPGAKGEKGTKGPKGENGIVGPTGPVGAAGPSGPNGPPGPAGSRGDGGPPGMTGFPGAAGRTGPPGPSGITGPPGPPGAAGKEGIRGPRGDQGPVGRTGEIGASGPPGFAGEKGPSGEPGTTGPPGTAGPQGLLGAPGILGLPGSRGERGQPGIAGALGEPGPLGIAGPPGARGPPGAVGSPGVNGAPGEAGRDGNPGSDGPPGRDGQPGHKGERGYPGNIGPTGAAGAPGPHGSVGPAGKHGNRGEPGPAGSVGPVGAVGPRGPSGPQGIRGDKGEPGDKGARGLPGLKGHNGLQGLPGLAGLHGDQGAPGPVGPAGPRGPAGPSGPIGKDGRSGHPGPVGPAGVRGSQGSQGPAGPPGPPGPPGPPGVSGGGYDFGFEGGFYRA
# Test: dried collagen assay
row,Binder,% Collagen Binding
1,DWTCSGDEYAWHCNYE [SEQ ID NO: 120],28%
2,PWTCSGDEYAWHCNYE [SEQ ID NO: 121],72%
3,GQWTCSGDEY[dA]WHCNA[dE] (disulfide 5-14 (inferred)) [SEQ ID NO: 124],17%
4,GQWTCSGDEYSWHCNY[dE] (disulfide 5-14 (inferred)) [SEQ ID NO: 125],86%
5,GQWTCSGDEYAWHCNY[dE] (disulfide 5-14 (inferred)) [SEQ ID NO: 126],73%
6,YHACYQAGCWAW (disulfide 4-9; not fully specified) [SEQ ID NO: 137],7%
7,GQWTCSADEYTWHCNYE (disulfide 5-14; not fully specified) [SEQ ID NO: 142],6%
8,G[dQ]WTCSGDEYTWHCNYE (disulfide 5-14 (inferred)) [SEQ ID NO: 164],31%
9,GQ[dW]TCSGDEYTWHCNYE (disulfide 5-14 (inferred)) [SEQ ID NO: 165],4%
10,GQW[dT]CSGDEYTWHCNYE (disulfide 5-14 (inferred)) [SEQ ID NO: 166],3%
11,GQWT[dC]SGDEYTWHCNYE (disulfide 5-14 (inferred)) [SEQ ID NO: 167],0%
12,GQWTC[dS]GDEYTWHCNYE (disulfide 5-14 (inferred)) [SEQ ID NO: 168],2%
13,GQWTCSG[dD]EYTWHCNYE (disulfide 5-14 (inferred)) [SEQ ID NO: 169],4%
14,GQWTCSGD[dE]YTWHCNYE (disulfide 5-14 (inferred)) [SEQ ID NO: 170],35%
15,B1,6%
16,B2,8%
17,B3,4%
18,B4,0%
19,B5,2%
20,B6,2%
21,B7,27%
22,B8,87%
23,DWTCSADEYTWHCNYE [SEQ ID NO: 179],75%
24,DWTCSSDEYTWHCNYE [SEQ ID NO: 180],72%
25,DWTCSRDEYTWHCNYE [SEQ ID NO: 181],86%
26,DWTCSYDEYTWHCNYE [SEQ ID NO: 182],86%
27,DWTCSLDEYTWHCNYE [SEQ ID NO: 183],63%

# Target: human collagen type I (acid soluble, extracted from placenta, Sigma C7774) (human) (UniProt P02452)
# Sequence (P02452 162-1218 limits assumed, chain 1 of 2): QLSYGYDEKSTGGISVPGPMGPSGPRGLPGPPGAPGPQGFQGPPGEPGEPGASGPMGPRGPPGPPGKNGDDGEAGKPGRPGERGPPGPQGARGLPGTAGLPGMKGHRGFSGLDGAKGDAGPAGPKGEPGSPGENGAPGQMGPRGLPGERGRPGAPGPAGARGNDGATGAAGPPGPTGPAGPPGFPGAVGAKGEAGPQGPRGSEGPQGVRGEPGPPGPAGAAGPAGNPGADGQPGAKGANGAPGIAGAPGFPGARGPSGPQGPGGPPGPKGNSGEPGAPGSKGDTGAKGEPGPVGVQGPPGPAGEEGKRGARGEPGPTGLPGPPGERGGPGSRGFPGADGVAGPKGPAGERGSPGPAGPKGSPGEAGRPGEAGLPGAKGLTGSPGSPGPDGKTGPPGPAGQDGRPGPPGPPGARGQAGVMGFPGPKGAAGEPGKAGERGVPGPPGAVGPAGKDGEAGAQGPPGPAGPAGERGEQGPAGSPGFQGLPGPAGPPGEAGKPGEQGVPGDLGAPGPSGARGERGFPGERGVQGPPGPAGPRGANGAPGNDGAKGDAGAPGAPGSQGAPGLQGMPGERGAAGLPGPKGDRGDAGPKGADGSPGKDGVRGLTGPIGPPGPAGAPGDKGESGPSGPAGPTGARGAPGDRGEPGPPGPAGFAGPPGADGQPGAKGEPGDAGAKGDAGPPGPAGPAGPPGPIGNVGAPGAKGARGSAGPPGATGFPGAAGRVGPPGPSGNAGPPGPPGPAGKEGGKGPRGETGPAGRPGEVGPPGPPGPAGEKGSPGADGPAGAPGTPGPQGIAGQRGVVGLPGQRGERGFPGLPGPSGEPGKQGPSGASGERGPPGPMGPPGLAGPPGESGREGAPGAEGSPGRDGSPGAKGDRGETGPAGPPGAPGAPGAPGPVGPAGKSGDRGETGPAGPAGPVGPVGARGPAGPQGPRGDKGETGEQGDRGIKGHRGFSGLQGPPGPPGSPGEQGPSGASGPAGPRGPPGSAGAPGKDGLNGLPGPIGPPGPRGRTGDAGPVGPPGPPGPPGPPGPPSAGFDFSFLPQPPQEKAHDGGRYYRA
# Sequence (P08123 80-1119 limits assumed, chain 2 of 2, further chain): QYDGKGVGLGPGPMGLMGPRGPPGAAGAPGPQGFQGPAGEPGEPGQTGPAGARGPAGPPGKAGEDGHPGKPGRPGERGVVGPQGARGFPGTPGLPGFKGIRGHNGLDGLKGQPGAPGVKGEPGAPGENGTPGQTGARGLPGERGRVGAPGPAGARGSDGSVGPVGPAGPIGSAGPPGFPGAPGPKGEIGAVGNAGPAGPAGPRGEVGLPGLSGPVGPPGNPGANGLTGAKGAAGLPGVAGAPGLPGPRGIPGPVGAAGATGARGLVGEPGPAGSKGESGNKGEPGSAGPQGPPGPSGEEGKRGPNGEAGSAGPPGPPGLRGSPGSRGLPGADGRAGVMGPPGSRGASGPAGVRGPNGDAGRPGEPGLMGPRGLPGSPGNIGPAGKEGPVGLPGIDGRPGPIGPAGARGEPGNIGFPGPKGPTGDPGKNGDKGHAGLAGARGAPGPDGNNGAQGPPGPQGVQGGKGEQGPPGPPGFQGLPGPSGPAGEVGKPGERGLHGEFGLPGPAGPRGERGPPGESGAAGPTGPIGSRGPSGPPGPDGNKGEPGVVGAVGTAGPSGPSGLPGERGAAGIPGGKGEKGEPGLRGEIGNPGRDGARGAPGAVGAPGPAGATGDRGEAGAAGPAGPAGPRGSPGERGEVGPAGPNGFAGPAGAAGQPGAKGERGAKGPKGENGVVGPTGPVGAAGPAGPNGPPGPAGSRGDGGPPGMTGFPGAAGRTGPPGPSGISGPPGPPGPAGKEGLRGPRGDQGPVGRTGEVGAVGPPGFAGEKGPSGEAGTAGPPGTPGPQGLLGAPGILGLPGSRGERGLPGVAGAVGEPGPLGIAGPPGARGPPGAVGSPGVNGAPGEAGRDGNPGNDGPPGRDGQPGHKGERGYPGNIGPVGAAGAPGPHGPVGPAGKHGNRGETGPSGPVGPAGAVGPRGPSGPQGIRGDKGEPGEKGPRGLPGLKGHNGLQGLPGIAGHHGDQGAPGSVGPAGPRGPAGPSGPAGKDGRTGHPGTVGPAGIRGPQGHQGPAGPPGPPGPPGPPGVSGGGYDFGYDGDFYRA
# Test: dried collagen assay
Binder,% Collagen Binding,Dried Human Collagen Binding
DWTCSGDEYAWHCNYE [SEQ ID NO: 120],38%,–
PWTCSGDEYAWHCNYE [SEQ ID NO: 121],57%,–
GQWTCSGDEY[dA]WHCNA[dE] (disulfide 5-14 (inferred)) [SEQ ID NO: 124],24%,–
GQWTCSGDEYSWHCNY[dE] (disulfide 5-14 (inferred)) [SEQ ID NO: 125],85%,–
GQWTCSGDEYAWHCNY[dE] (disulfide 5-14 (inferred)) [SEQ ID NO: 126],68%,–
G[dQ]WTCSGDEYTWHCNYE (disulfide 5-14 (inferred)) [SEQ ID NO: 164],46%,–
GQ[dW]TCSGDEYTWHCNYE (disulfide 5-14 (inferred)) [SEQ ID NO: 165],2%,–
GQW[dT]CSGDEYTWHCNYE (disulfide 5-14 (inferred)) [SEQ ID NO: 166],2%,–
GQWT[dC]SGDEYTWHCNYE (disulfide 5-14 (inferred)) [SEQ ID NO: 167],4%,–
GQWTC[dS]GDEYTWHCNYE (disulfide 5-14 (inferred)) [SEQ ID NO: 168],3%,–
GQWTCSG[dD]EYTWHCNYE (disulfide 5-14 (inferred)) [SEQ ID NO: 169],11%,–
GQWTCSGD[dE]YTWHCNYE (disulfide 5-14 (inferred)) [SEQ ID NO: 170],49%,–
B1,13%,–
B2,9%,–
B3,5%,–
B4,5%,–
B5,2%,–
B6,2%,–
B7,30%,–
B8,90%,–
DWTCSADEYTWHCNYE [SEQ ID NO: 179],81%,–
DWTCSSDEYTWHCNYE [SEQ ID NO: 180],81%,–
DWTCSRDEYTWHCNYE [SEQ ID NO: 181],87%,–
DWTCSYDEYTWHCNYE [SEQ ID NO: 182],89%,–
DWTCSLDEYTWHCNYE [SEQ ID NO: 183],73%,–
LWTCSMDRNYDWVCGEK (disulfide 4-14; not fully specified (C-terminus)) [SEQ ID NO: 82],–,3%
TWMCVDPPLWRCWVQ (disulfide 4-12; also: C-terminus probably amidated (Rink amide resin)) [SEQ ID NO: 4],–,45%
GWACNTTSKGDWECTNL (disulfide 4-14; not fully specified (C-terminus)) [SEQ ID NO: 83],–,3%
HWSCDLAMDNEWFCSTK (disulfide 4-14; not fully specified (C-terminus)) [SEQ ID NO: 84],–,3%
GWTCSQPGANVWNCTMQ (disulfide 4-14; not fully specified (C-terminus)) [SEQ ID NO: 85],–,3%
